Experimental data: US20240092922A1 (EUCURE BEIJING BIOPHARMA, published 2024)

T1: monkey (Rhesus macaque) 4-1BB (r4-1BB) on transfected CHO cells (monkey (Rhesus macaque), UniProt Q07011 24-255 (human entry))
T1 construct: also called rm4-1BB; CHO-r4-1BB
T1 chain: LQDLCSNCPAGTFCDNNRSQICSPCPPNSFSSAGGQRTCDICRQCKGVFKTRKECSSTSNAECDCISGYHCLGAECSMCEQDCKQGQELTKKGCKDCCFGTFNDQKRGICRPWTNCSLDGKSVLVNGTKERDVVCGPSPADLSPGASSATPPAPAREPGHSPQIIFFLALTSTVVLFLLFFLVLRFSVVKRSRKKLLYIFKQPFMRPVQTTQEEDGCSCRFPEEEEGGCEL


What was measured:
[1] = biological target: T2, human 4-1BB (h4-1BB) on transiently transfected CHO cells (human, UniProt Q07011 24-255); test: flow cytometry, CHO cells transfected with human 4-1BB, antibody at 10 µg/ml
T2 construct: also called TNFRSF9; CD137
Procedure: (§1) 25 μl CHO cells transiently transfected with human 4-1BB were added to each well in a plate. The purified antibodies were titrated to final concentrations of 10, 1, 0.1, 0.01, 0.001 μg/ml. The titrated antibodies were added to each well at 4° C. and incubated for 30 minutes.
(§2) After being washed with phosphate-buffered saline (PBS) (1200 rpm, 5 minutes) twice, 50 μl of FITC labeled anti-mouse IgG Fc antibody (anti-mIgG Fc-FITC) at 1:100 dilution was added into each well, and incubated for 30 minutes at 4° C., followed by PBS wash (1200 rpm, 5 minutes). The signal for FITC was detected by flow cytometry.

[2] = biological target: T3, chimeric (mouse and human) 4-1BB (c4-1BB) on transfected CHO cells (chimeric (mouse and human)); test: flow cytometry on transfected CHO cells;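 note: antibodies tested at 1 µg/ml on CHO cells for 30 min at 4 °C, binding detected with FITC- or PE-labeled anti-mouse IgG Fc secondary by flow cytometry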
T3 construct: also called chi4-1BB; CHO-c4-1BB
Procedure: (§3) 25 μl CHO cells were added to each well. 25 μl purified anti-h4-1BB antibodies (1 μg/ml) were added to each well and were incubated at 4° C. for 30 minutes.
(§4) After being washed with PBS (1200 rmp, 5 min) twice, 50 μl of FITC labeled anti-mouse IgG Fc antibody (anti-mIgG Fc-FITC) was added into each well at 1:100 dilution, followed by incubating at 4° C. for 30 minutes, and then PBS wash (1200 rmp, 5 min). In some cases, PE labeled anti-mouse IgG Fc antibody (anti-mIgG Fc-PE) was used to label the antibody instead, and was added into each tested well at 1:500 dilution. The signals for FITC and PE were determined by flow cytometry.

[3] = biological target: T2, human 4-1BB (h4-1BB) on transiently …; test: flow cytometry, CHO cells transfected with human 4-1BB, antibody at 0.1 µg/ml
Procedure: as §1, §2

[4] = biological target: T2, human 4-1BB (h4-1BB) on transiently …; test: flow cytometry, CHO cells transfected with human 4-1BB, antibody at 0.01 µg/ml
Procedure: as §1, §2

[5] = biological target: T4, mouse 4-1BB (m4-1BB) on transfected CHO cells (mouse, UniProt P20334 24-256); test: flow cytometry on CHO cells transfected with mouse 4-1BB
T4 construct: also called CHO-m4-1BB
Procedure: as §3, §4

[6] = biological target: T2, human 4-1BB (h4-1BB) on transiently …; test: flow cytometry, CHO cells transfected with human 4-1BB, antibody at 1 µg/ml
Procedure: as §1, §2

[7] = biological target: T2, human 4-1BB (h4-1BB) on transiently …; test: flow cytometry, CHO cells transfected with human 4-1BB, antibody at 0.001 µg/ml
Procedure: as §1, §2

[8] = biological target: T1, monkey (Rhesus macaque) 4-1BB (r4-1BB) …; test: flow cytometry on transfected CHO cells;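 note: antibodies tested at 1 µg/ml on CHO cells for 30 min at 4 °C, binding detected with FITC- or PE-labeled anti-mouse IgG Fc secondary by flow cytometry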
Procedure: as §3, §4

[9] = biological target: T5, Histidine-tagged human 4-1BB protein (h4-1BB-His) (human, UniProt Q07011 24-186); test: SPR (Biacore T200), antibody on Protein A chip, h4-1BB-His injected;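 note: dissociation phase followed for 300 s, Kd derived as koff divided by kon from the kinetic fit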
T5 construct: not shown: histidine tag

percentage of cells with FITC signal [1] [%]	binding result [2]	percentage of cells with FITC signal [3] [%]	percentage of cells with FITC signal [4] [%]	binding result [5]	percentage of cells with FITC signal [6] [%]	percentage of cells with FITC signal [7] [%]	binding result [8]	Kd [9] [nM]	koff [9] [s⁻¹]	kon [9] [M⁻¹ s⁻¹]	Binder
58.6	binds	43.9	6.21	no binding (tested: 1 µg/ml)	56.1	1.38	binds				45-8F1 (antibody, V domains shown, mouse antibody purified from ascites) VH: EVQLQQSGTVLARPGASVKMSCKASGYSFTSYWMHWVKQRPGQGLEWIGVIYPGNSDTSYNQKFKGKAKLTAVTSASTAYMDLSSLTNEDSAVYYCTRGITTAPDYWGQGTTLTVSS VL: NIVMTQSPKSMSMSVGERVTLSCKASENVGIHVSWYQQKPEQSPKLLIYGASSGYNGVPDRFTGSGSATDFTLTISSVQPEDLADYHCGQTYSYPFTFGSGTKLEIK
62.2	binds	12	0.622	no binding (tested: 1 µg/ml)	51.8	0.504	binds				45-2B3 (antibody, V domains shown, mouse antibody purified from ascites) VH: QVQLQQSGPELVKPGASVKISCKTSGYAFSTSWMNWVKQRPGQGLEWIGRIYPGDGDTDYNGRFKGKATLTADKSSSTAYLQLSSLTSVDSAVYFCARLDGYYEVFYFDYWGQGTTLTVSS VL: not shown
								2.32	0.00155	668000	6A5-H2K1-IgG2 (antibody, V domains shown, humanized) VH: QVQLVQSGAEVKKPGSSVKLSCKASGYTFSSYWINWVRQAPGQGLEWIGNIYPSDSYTNYNQKFKDRATLTVDKSTSTAYMELSSLRSEDTAVYYCTRTWEFYYDSVFDYWGQGTLVTVSS VL: DIQMTQSPSSLSASLGERVTITCKASQDINSYLSWYQQKPGKAPKLLIYRANRLVDGVPSRFSGSGSGQDFTLTISSLQPEDIATYYCLQYDELPPTFGGGTKVEIK
								0.402	0.000825	2.05e+06	6A5-H3K2-IgG2 (antibody, V domains shown, humanized) VH: QVQLVQSGAEVKKPGSSVKLSCKASGYTFSSYWINWVKQAPGQGLEWIGNIYPSDSYTNYNQKFKDKATLTVDKSTSTAYMELSSLRSEDTAVYYCTRTWEFYYDSVFDYWGQGTTLTVSS VL: DIQMTQSPSSLSASLGERVTITCKASQDINSYLSWYQQKPGKAPKTLIYRANRLVDGVPSRFSGSGSGQDFTLTISSLQPEDIATYYCLQYDELPPTFGGGTKVEIK
								0.252	0.000538	2.14e+06	6A5-H3K3-IgG2 (antibody, V domains shown, humanized) VH: QVQLVQSGAEVKKPGSSVKLSCKASGYTFSSYWINWVKQAPGQGLEWIGNIYPSDSYTNYNQKFKDKATLTVDKSTSTAYMELSSLRSEDTAVYYCTRTWEFYYDSVFDYWGQGTTLTVSS VL: DIQMTQSPSSLSASLGERVTITCKASQDINSYLSWFQQKPGKAPKTLIYRANRLVDGVPSRFSGSGSGQDFTLTISSLQPEDIATYYCLQYDELPPTFGGGTKVEIK
								0.214	0.000475	2.22e+06	6A5-H1K3-IgG2 (antibody, V domains shown, humanized) VH: QVQLVQSGAEVKKPGSSVKLSCKASGYTFSSYWINWVRQAPGQGLEWMGNIYPSDSYTNYNQKFKDRVTLTVDKSTSTAYMELSSLRSEDTAVYYCTRTWEFYYDSVFDYWGQGTLVTVSS VL: DIQMTQSPSSLSASLGERVTITCKASQDINSYLSWFQQKPGKAPKTLIYRANRLVDGVPSRFSGSGSGQDFTLTISSLQPEDIATYYCLQYDELPPTFGGGTKVEIK
								0.26	0.000581	2.24e+06	6A5-H2K4-IgG2 (antibody, V domains shown, humanized) VH: QVQLVQSGAEVKKPGSSVKLSCKASGYTFSSYWINWVRQAPGQGLEWIGNIYPSDSYTNYNQKFKDRATLTVDKSTSTAYMELSSLRSEDTAVYYCTRTWEFYYDSVFDYWGQGTLVTVSS VL: DIQMTQSPSSLSASLGERVTITCKASQDINSYLSWFQQKPGKAPKTLIYRANRLVDGVPSRFSGSGSGQDYTLTISSLQPEDIATYYCLQYDELPPTFGGGTKLEIK

The remaining lines, values behind:

Binder	percentage of cells with FITC signal [1] [%]	binding result [2]	percentage of cells with FITC signal [3] [%]	percentage of cells with FITC signal [4] [%]	binding result [5]	percentage of cells with FITC signal [6] [%]	percentage of cells with FITC signal [7] [%]	binding result [8]	Kd [9] [nM]	koff [9] [s⁻¹]	kon [9] [M⁻¹ s⁻¹]
56-2A6 (antibody, V domains shown, mouse antibody purified from ascites) VH: QIQLVQSGPELKKPGETVKISCKASGYTFTNYGMNWVKQAPGKGFKWMGWINTYTGEPTYADDFKGRFAFSLEISASTAYLQINNLKNEDTATYFCARRDYLGAMDYWGQGTSVTVSS VL: ENVLTQSPAIMSASPGEKVTMTCRASSSVSSSYLHWYQQKSGASPKLWIYSTSNLASGVPARFSGSGSGTSYSLTISSVEAEDAATYYCQQYSAYLYTFGGGTKLEIK	46.6	binds	17.1	0.89	no binding (tested: 1 µg/ml)	40.9	0.25				
29-6A5 (antibody, V domains shown, mouse antibody purified from ascites) VH: QVQLQQPGAELVRPGASVKLSCKASGYTFSSYWINWVKQRPGQGLEWIGNIYPSDSYTNYNQKFKDKATLTVDKSSSTAYMQLSSPTSDDSAVYYCTRTWEFYYDSVFDYWGQGTTLTVSS VL: DIKMTQSPSSMYASLGERVTITCKASQDINSYLSWFQQKPGKSPKTLIYRANRLVDGVPSRFSGSGSGQDYSLTISSLEYEDMGIYYCLQYDELPPTFGGGTKLEIK	80.5	binds	70.8	47.4	no binding (tested: 1 µg/ml)	73.4		binds			
6A5-H1K2-IgG2 (antibody, V domains shown, humanized) VH: QVQLVQSGAEVKKPGSSVKLSCKASGYTFSSYWINWVRQAPGQGLEWMGNIYPSDSYTNYNQKFKDRVTLTVDKSTSTAYMELSSLRSEDTAVYYCTRTWEFYYDSVFDYWGQGTLVTVSS VL: DIQMTQSPSSLSASLGERVTITCKASQDINSYLSWYQQKPGKAPKTLIYRANRLVDGVPSRFSGSGSGQDFTLTISSLQPEDIATYYCLQYDELPPTFGGGTKVEIK									0.278	0.000662	2.38e+06
6A5-H1K4-IgG2 (antibody, V domains shown, humanized) VH: QVQLVQSGAEVKKPGSSVKLSCKASGYTFSSYWINWVRQAPGQGLEWMGNIYPSDSYTNYNQKFKDRVTLTVDKSTSTAYMELSSLRSEDTAVYYCTRTWEFYYDSVFDYWGQGTLVTVSS VL: DIQMTQSPSSLSASLGERVTITCKASQDINSYLSWFQQKPGKAPKTLIYRANRLVDGVPSRFSGSGSGQDYTLTISSLQPEDIATYYCLQYDELPPTFGGGTKLEIK									0.321	0.000693	2.16e+06
6A5-H3K4-IgG2 (antibody, V domains shown, humanized) VH: QVQLVQSGAEVKKPGSSVKLSCKASGYTFSSYWINWVKQAPGQGLEWIGNIYPSDSYTNYNQKFKDKATLTVDKSTSTAYMELSSLRSEDTAVYYCTRTWEFYYDSVFDYWGQGTTLTVSS VL: DIQMTQSPSSLSASLGERVTITCKASQDINSYLSWFQQKPGKAPKTLIYRANRLVDGVPSRFSGSGSGQDYTLTISSLQPEDIATYYCLQYDELPPTFGGGTKLEIK									0.4	0.000747	1.87e+06
6A5-H2K3-IgG2 (antibody, V domains shown, humanized) VH: QVQLVQSGAEVKKPGSSVKLSCKASGYTFSSYWINWVRQAPGQGLEWIGNIYPSDSYTNYNQKFKDRATLTVDKSTSTAYMELSSLRSEDTAVYYCTRTWEFYYDSVFDYWGQGTLVTVSS VL: DIQMTQSPSSLSASLGERVTITCKASQDINSYLSWFQQKPGKAPKTLIYRANRLVDGVPSRFSGSGSGQDFTLTISSLQPEDIATYYCLQYDELPPTFGGGTKVEIK									0.221	0.000504	2.28e+06
6A5-H3K1-IgG2 (antibody, V domains shown, humanized) VH: QVQLVQSGAEVKKPGSSVKLSCKASGYTFSSYWINWVKQAPGQGLEWIGNIYPSDSYTNYNQKFKDKATLTVDKSTSTAYMELSSLRSEDTAVYYCTRTWEFYYDSVFDYWGQGTTLTVSS VL: DIQMTQSPSSLSASLGERVTITCKASQDINSYLSWYQQKPGKAPKLLIYRANRLVDGVPSRFSGSGSGQDFTLTISSLQPEDIATYYCLQYDELPPTFGGGTKVEIK									2.78	0.00181	650000
45-4B9 (antibody, V domains shown, mouse antibody purified from ascites) VH: EVQLQQSGPELVKPGASVKMSCKASGYTFTTYVMYWVKQRPGQGLEWIGYINPYNDDIRYNEKFKGKATLTSDRSSSTAYMELSSLTSEDSAVYLCARQGGDYWGQGTILTVSS VL: DVQITQSPSYLAASPGETITVNCRASKNINKYLAWYQEKPGKTNKLLIYSGSTLQSGIPSRFSGSGSGTDFTLTISSLEPEDFAVYHCQQYNEYPLTFGAGTKLEMK	56.2	binds	10.4	1.2	no binding (tested: 1 µg/ml)	49.3	1.86	binds			
